The Human Domainome abundance scans (Beltran et al. 2025)
± gives the uncertainty stated by the source.

B1: Ras GTPase-activating protein 1, residues 281 to 341; numbered along this chain, P20936 (parent)
chain: RRRVRAILPYTKVPDTDEISFLKGDMFIVHNELEDGWMWVTNLRTDEQGLIVEDLVEEVGR

Variants of: B1
Experiment: abundance fitness (aPCA) (normalised: wild type 0, dead -1); higher = more abundant; growth selection in yeast, the domain comes from the species named
Conditions: Homo sapiens
Variant M26C has an abundance fitness of -0.042 ± 0.027. In the case of V59N, the abundance fitness is reported as -0.19 ± 0.033. With G49T the abundance fitness was -0.791 ± 0.06. Work on N42K yielded an abundance fitness of -0.61 ± 0.083. F21G showed an abundance fitness of -0.914 ± 0.029. L50D showed an abundance fitness of -0.958 ± 0.055. With E18I the abundance fitness was -0.35 ± 0.036. T11W showed an abundance fitness of -0.213 ± 0.049. Variant G36K has an abundance fitness of -0.344 ± 0.097. Variant A6Q has an abundance fitness of -0.915 ± 0.061. With G49H the abundance fitness was -0.825 ± 0.053. R5Q gave an abundance fitness of -0.01 ± 0.057. For E34M, the abundance fitness was -0.159 ± 0.089. Work on G24V yielded an abundance fitness of -0.751 ± 0.036. In the case of L22S, the abundance fitness is reported as -0.108 ± 0.029. With E53D the abundance fitness was -0.045 ± 0.03. With R5H the abundance fitness was -0.398 ± 0.036. T45A gave an abundance fitness of -0.735 ± 0.049. P14V showed an abundance fitness of -0.101 ± 0.027. E47G showed an abundance fitness of -0.684 ± 0.034. In the case of L50G, the abundance fitness is reported as -0.613 ± 0.031. E53Y showed an abundance fitness of -0.121 ± 0.027. Work on V4S yielded an abundance fitness of -0.895 ± 0.027. With I51R the abundance fitness was -0.786 ± 0.044. Variant G36Q has an abundance fitness of -0.557 ± 0.09. For H30P, the abundance fitness was -0.789 ± 0.061. With V52L the abundance fitness was 0.041 ± 0.027. In the case of I19R, the abundance fitness is reported as -0.833 ± 0.05. In the case of N31P, the abundance fitness is reported as -0.841 ± 0.068. R2P gave an abundance fitness of -0.189 ± 0.044. With F21H the abundance fitness was -0.84 ± 0.036. Variant V13W has an abundance fitness of -0.152 ± 0.058. Work on G49F yielded an abundance fitness of -0.754 ± 0.041. Work on K12C yielded an abundance fitness of -0.101 ± 0.029. In the case of R2D, the abundance fitness is reported as -0.179 ± 0.034. Y10D showed an abundance fitness of -1.04 ± 0.13. For R3H, the abundance fitness was -0.096 ± 0.032. I7Y showed an abundance fitness of -0.366 ± 0.032. With L22G the abundance fitness was -0.229 ± 0.034. E47Q showed an abundance fitness of -0.135 ± 0.075. In the case of R44E, the abundance fitness is reported as -0.442 ± 0.091. With V40A the abundance fitness was 0.002 ± 0.033. In the case of D17H, the abundance fitness is reported as -0.061 ± 0.03. For F27A, the abundance fitness was -0.901 ± 0.06. Variant E57W has an abundance fitness of -0.921 ± 0.17. In the case of R3W, the abundance fitness is reported as -0.378 ± 0.054. With P14G the abundance fitness was -0.089 ± 0.025. D46V gave an abundance fitness of -0.044 ± 0.024. Variant D15L has an abundance fitness of -0.246 ± 0.033. For N42D, the abundance fitness was -0.585 ± 0.032. In the case of L43E, the abundance fitness is reported as -0.026 ± 0.1. With E34G the abundance fitness was -0.035 ± 0.03. For T45N, the abundance fitness was -0.005 ± 0.027. T16P gave an abundance fitness of -0.911 ± 0.074. E57Y showed an abundance fitness of -0.357 ± 0.043. With V29W the abundance fitness was -0.951 ± 0.13. L33M gave an abundance fitness of -0.099 ± 0.055. With D25E the abundance fitness was -0.712 ± 0.094. S20F gave an abundance fitness of -0.877 ± 0.067. M38F gave an abundance fitness of -0.18 ± 0.031. Variant R44Y has an abundance fitness of -0.523 ± 0.035. In the case of E57G, the abundance fitness is reported as -0.536 ± 0.048. In the case of E53L, the abundance fitness is reported as -0.236 ± 0.03. For E57T, the abundance fitness was -0.117 ± 0.042. Y10G showed an abundance fitness of -0.84 ± 0.091. In the case of T41G, the abundance fitness is reported as -0.941 ± 0.046. I51P gave an abundance fitness of -0.912 ± 0.087. With M26W the abundance fitness was -0.104 ± 0.048. In the case of N31A, the abundance fitness is reported as -0.036 ± 0.032. In the case of T45H, the abundance fitness is reported as -0.769 ± 0.046. Work on V56R yielded an abundance fitness of -0.846 ± 0.048. T45Y showed an abundance fitness of -0.841 ± 0.045. For T41P, the abundance fitness was -0.973 ± 0.096. W39F showed an abundance fitness of -0.034 ± 0.021. In the case of M38C, the abundance fitness is reported as -0.228 ± 0.028. With P14C the abundance fitness was -0.142 ± 0.026. Work on L55G yielded an abundance fitness of -0.348 ± 0.028. Variant E53V has an abundance fitness of -0.053 ± 0.028. In the case of D15E, the abundance fitness is reported as 0.05 ± 0.05. W39C gave an abundance fitness of -0.187 ± 0.021. Work on E53R yielded an abundance fitness of -0.019 ± 0.028. Variant W39I has an abundance fitness of -0.284 ± 0.021. With N42Q the abundance fitness was -0.737 ± 0.1. T45W gave an abundance fitness of -0.876 ± 0.1. Variant V52F has an abundance fitness of 0.009 ± 0.026. W37K showed an abundance fitness of 0.121 ± 0.037. In the case of D17Q, the abundance fitness is reported as -0.011 ± 0.061. V52D gave an abundance fitness of -0.121 ± 0.031. Work on V40E yielded an abundance fitness of -1.13 ± 0.24. For D35T, the abundance fitness was -0.098 ± 0.034. For E18C, the abundance fitness was -0.341 ± 0.03. For R3V, the abundance fitness was -0.1 ± 0.028. Work on R2S yielded an abundance fitness of -0.164 ± 0.024. Work on I28A yielded an abundance fitness of -0.068 ± 0.022. N31K showed an abundance fitness of 0.034 ± 0.06. R3D gave an abundance fitness of -0.514 ± 0.037. Variant Q48D has an abundance fitness of -0.038 ± 0.031. G49L gave an abundance fitness of -0.847 ± 0.049. Variant T45K has an abundance fitness of -1.05 ± 0.13. In the case of P14T, the abundance fitness is reported as -0.076 ± 0.034. E34P showed an abundance fitness of 0.03 ± 0.048. R1G showed an abundance fitness of -0.098 ± 0.047. Variant G24C has an abundance fitness of -0.733 ± 0.036. Variant V29S has an abundance fitness of -0.866 ± 0.043. Q48W showed an abundance fitness of -0.32 ± 0.062. I7N showed an abundance fitness of -0.292 ± 0.032. D15R showed an abundance fitness of -0.172 ± 0.03. In the case of W39E, the abundance fitness is reported as 0.003 ± 0.032. Work on L43S yielded an abundance fitness of -0.19 ± 0.027. R2F showed an abundance fitness of -0.196 ± 0.032. Work on R61W yielded an abundance fitness of 0.07 ± 0.076. For T45L, the abundance fitness was -0.836 ± 0.042. E34W gave an abundance fitness of -0.28 ± 0.066. With P9D the abundance fitness was 0.049 ± 0.033. With V52T the abundance fitness was 0.023 ± 0.03. For W39P, the abundance fitness was -0.796 ± 0.043. For T41D, the abundance fitness was -0.862 ± 0.053. Variant T41H has an abundance fitness of -0.078 ± 0.034. With N31E the abundance fitness was -0.038 ± 0.056. For R44C, the abundance fitness was -0.47 ± 0.036. T41F showed an abundance fitness of -0.88 ± 0.05. I7T showed an abundance fitness of -0.088 ± 0.047. E18T gave an abundance fitness of -0.222 ± 0.038. Variant G24Y has an abundance fitness of -0.297 ± 0.033. Variant F27L has an abundance fitness of -0.241 ± 0.029. With L55V the abundance fitness was -0.175 ± 0.029. Variant F27Y has an abundance fitness of -0.834 ± 0.045. For E32I, the abundance fitness was 0.031 ± 0.03. V56M gave an abundance fitness of -0.23 ± 0.056. N42L showed an abundance fitness of -0.296 ± 0.034. W39Y showed an abundance fitness of -0.009 ± 0.023. Variant V4M has an abundance fitness of -0.074 ± 0.032. R2C gave an abundance fitness of -0.347 ± 0.03. Variant D35W has an abundance fitness of -0.337 ± 0.054. N31L showed an abundance fitness of -0.174 ± 0.029. For V13P, the abundance fitness was -0.34 ± 0.042. R1A gave an abundance fitness of -0.129 ± 0.047. V13N showed an abundance fitness of 0.058 ± 0.031. H30R showed an abundance fitness of -0.255 ± 0.029. R3Y showed an abundance fitness of -0.045 ± 0.031. E34L showed an abundance fitness of -0.182 ± 0.033. Work on D35R yielded an abundance fitness of -0.035 ± 0.03. In the case of W37S, the abundance fitness is reported as 0.004 ± 0.02. In the case of L8Y, the abundance fitness is reported as -0.084 ± 0.026. G49I gave an abundance fitness of -0.874 ± 0.048. For V59T, the abundance fitness was -0.113 ± 0.031. W37C showed an abundance fitness of -0.016 ± 0.021. In the case of P14F, the abundance fitness is reported as -0.348 ± 0.031. P9S showed an abundance fitness of -0.044 ± 0.026. F21E gave an abundance fitness of -0.866 ± 0.063. With D25F the abundance fitness was -0.822 ± 0.047. With K12Q the abundance fitness was -0.202 ± 0.096. Variant K12I has an abundance fitness of -1.01 ± 0.062. Work on F21C yielded an abundance fitness of -0.101 ± 0.021. E57P showed an abundance fitness of -0.848 ± 0.099. F21T showed an abundance fitness of -0.907 ± 0.038. With L22I the abundance fitness was 0.001 ± 0.033. For V13L, the abundance fitness was -0.053 ± 0.029. Variant D25Y has an abundance fitness of -0.948 ± 0.051. W37T gave an abundance fitness of 0.037 ± 0.024. Work on R2V yielded an abundance fitness of -0.232 ± 0.031. With K12L the abundance fitness was -0.779 ± 0.041. G49W showed an abundance fitness of -1.09 ± 0.18. For E53G, the abundance fitness was 0.03 ± 0.027. With V52R the abundance fitness was 0.043 ± 0.027. W37E showed an abundance fitness of -0.176 ± 0.036. In the case of V29P, the abundance fitness is reported as -0.959 ± 0.079.
